In patent publication US20250289897A1, “LEPTIN RECEPTOR AGONISTIC ANTIBODY AS MONO OR COMBO THERAPIES TO TREAT OBESITY” (ELI LILLY AND COMPANY, priority 2024, published 2025):
“And” between values parts separate entries of the source, which are not always exact repeats. Equal entries are not always repeated.

Key:
[1] = biological target: T1, FcRn (Homo sapiens, UniProt P55899); assay: Relative FcRn binding by FcRn-HPLC; conditions: FcRn affinity column; for Retention Time: pH gradient 5.5 to 8.8 over 90 minutes, main peak; for Peak Width: peak width at 50% peak height
T1 construct: purchased Roche 09430857001
Procedure: IgG binding to neonatal Fc receptor (FcRn) is a key mechanism for antibody recycling and a determinant of antibody pharmacokinetics (PK). […] Antibody-A is an IgG1 mAb with L234A, L235A, D265S mutations to reduce FcγR and Clq binding and M252Y, S254T, and T256E mutations to modulate the antibody's clearance profile. The impact of these combined mutation sets was assessed by FcRn-HPLC. Stock antibody solutions were diluted to 1 mg/mL into 20 mM MES, 140 mM NaCl, pH5.5. An Agilent 1290 HPLC equipped with an FcRn Affinity Column Gen2 (Roche, Cat #09430857001) was pre-equilibrated with 20 mM MES, 140 mM NaCl, pH5.5 with a flow rate of 0.2mL/min. 20 μμL antibody injections were made followed by 10 minute column wash with 20 mM MES, 140 mM NaCl, pH5.5. Antibodies were then eluted by pH gradient elution into 20 mM Tris, 140 mM NaCl, pH8.8 over 90 minutes. Chromatograms were blank-subtracted to remove baseline drift.

[2] = biological target: leptin-LEPR interaction (Homo sapiens, UniProt P48357); assay: ELISA based competition binding assay of antibodies and leptin protein to LEPR
Sequence of leptin-LEPR interaction (P48357 with tags, fused parts or gaps): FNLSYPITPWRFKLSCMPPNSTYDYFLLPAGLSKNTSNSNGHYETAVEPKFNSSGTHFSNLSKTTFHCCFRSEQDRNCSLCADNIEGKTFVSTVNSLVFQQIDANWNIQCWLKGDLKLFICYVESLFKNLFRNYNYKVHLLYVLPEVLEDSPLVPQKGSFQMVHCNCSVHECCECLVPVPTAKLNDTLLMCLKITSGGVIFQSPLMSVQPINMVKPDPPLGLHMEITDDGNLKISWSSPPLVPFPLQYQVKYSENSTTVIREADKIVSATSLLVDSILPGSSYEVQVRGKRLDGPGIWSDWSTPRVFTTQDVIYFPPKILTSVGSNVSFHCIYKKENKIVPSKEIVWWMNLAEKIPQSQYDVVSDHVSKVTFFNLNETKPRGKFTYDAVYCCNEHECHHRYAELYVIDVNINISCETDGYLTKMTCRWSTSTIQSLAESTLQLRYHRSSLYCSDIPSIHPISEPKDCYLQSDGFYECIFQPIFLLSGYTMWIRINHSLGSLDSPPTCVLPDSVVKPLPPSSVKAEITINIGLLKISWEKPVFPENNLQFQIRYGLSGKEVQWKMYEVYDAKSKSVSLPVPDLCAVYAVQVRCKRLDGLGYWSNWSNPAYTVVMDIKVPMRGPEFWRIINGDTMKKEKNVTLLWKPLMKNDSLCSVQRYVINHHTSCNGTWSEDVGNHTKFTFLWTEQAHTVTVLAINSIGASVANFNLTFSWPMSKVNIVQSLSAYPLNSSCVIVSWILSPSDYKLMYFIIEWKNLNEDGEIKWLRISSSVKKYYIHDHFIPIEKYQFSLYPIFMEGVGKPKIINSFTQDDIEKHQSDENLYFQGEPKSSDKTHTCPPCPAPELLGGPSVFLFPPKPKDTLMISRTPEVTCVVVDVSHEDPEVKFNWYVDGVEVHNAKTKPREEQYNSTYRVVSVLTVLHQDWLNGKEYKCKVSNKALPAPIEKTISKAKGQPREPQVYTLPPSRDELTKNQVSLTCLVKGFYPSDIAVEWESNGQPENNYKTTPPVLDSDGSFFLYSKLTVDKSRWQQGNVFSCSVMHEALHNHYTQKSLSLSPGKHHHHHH

Retention Time [1] | Peak Width [1] | Substance | Hill Slope ([2]; competition dose response curve) | Bottom (%) ([2]; percent leptin binding to plate-bound LEPR-Fc, 2 nM leptin, bottom of dose response curve) | Top (%) ([2]; percent leptin binding to plate-bound LEPR-Fc, 2 nM leptin, top of dose response curve)
88.9 min | 10 min and 10.0 min | Briakinumab |  |  | 
69.4 min | 1.9 min | Ustekinumab |  |  | 
 |  | hLEPR-TEV-hIgG1Fc: recombinant LEPR extracellular domain fused to hIgG1-Fc (SEQ ID NO: 30), positive control competing for leptin | −1.07 | 6.076% | 92.03%
